Assay results from publication PMC12409746.

Target: GST (glutathione S-transferase) released from the GST-P fusion protein (S. japonicum)
Assay: SEC

“GST (glutathione S-transferase) released from the GST-P fusion protein (natural protein)” showed a stoichiometry N of 2.
